The source of these data is US20240279288A1, “APPLICATION OF PLANT JAZ PROTEINS AND DERIVED POLYPEPTIDES IN PREVENTION AND TREATMENT OF HUMAN AND ANIMAL TUMORS” (ANYANG INSTITUTE OF SINO-COTTON INDUSTRY INNOVATION, priority 2021, published 2024).

The target of assay [1] is c-Myc (Homo sapiens, UniProt P01106). Briefly: Bimolecular fluorescence complementary experiment with c-Myc. In kind it is binding. The following applies: bimolecular fluorescence complementation, YFP signal in the nucleus of tobacco. Set-up: with the full length of c-Myc and NMYC, respectively; expressed in transfected cells; host or cells: yeast Y2HGold. From the text:
GhJAZ1 (SEQ ID No. 39) was subcloned into pUC-SPYNE vector (Song, Yun, et al. “BIN2 negatively regulates plant defense against Verticillium dahliae in Arabidopsis and cotton.” Plant Biotechnology Journal (2021)) between the BamHI and XbaiI cleavage sites by the bimolecular fluorescence complementary experiment to construct pUC-SPYNE-GhJAZ1. c-Myc (NCBI accession number: NM_002467.6) was subcloned into pUC-SPYCE vector (Song, Yun, et al. “BIN2 negatively regulates plant defense against Verticillium dahliae in Arabidopsis and cotton.” Plant Biotechnology Journal (2021)) between BamHI and XbaiI cleavage sites to construct pUC-SPYCE-c-Myc. […] Testing of inhibitory effect of GhJAZ1 protein on tumor cells

The target of assay [2] is T1, NMYC (Homo sapiens, UniProt P04198).
T1 construct: with the full length of c-Myc and NMYC, respectively; expressed in transfected cells; host or cells: yeast Y2HGold
T1 sequence (P04198 1-464): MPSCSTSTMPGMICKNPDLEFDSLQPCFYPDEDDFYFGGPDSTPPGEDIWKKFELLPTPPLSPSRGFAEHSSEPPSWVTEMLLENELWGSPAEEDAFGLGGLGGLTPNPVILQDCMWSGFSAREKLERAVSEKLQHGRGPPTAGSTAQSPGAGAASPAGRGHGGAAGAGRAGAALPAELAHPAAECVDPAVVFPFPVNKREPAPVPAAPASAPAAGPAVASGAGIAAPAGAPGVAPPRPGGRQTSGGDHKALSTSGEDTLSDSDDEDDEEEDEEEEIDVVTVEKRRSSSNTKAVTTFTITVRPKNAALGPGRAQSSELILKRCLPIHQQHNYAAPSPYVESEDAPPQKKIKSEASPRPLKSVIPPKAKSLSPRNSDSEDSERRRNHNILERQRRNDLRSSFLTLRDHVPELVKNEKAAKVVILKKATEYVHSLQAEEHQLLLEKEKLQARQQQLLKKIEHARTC
In words: Yeast two hybrid with NMYC. Type of assay: binding.
Source text: […]

c-Myc, sequence (P01106 whole entry): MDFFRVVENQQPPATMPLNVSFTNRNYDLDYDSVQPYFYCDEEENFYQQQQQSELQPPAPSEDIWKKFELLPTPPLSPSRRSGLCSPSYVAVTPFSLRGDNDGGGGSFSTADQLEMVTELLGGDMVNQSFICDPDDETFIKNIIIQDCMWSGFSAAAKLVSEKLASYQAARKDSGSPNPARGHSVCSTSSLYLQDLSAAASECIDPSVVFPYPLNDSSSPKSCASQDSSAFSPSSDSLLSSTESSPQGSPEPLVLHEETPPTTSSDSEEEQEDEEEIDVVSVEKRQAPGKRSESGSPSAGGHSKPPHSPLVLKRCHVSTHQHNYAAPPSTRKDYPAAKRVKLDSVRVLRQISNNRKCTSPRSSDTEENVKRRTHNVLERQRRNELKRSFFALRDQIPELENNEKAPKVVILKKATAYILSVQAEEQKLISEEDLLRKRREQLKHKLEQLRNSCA

B1: GhJAZ1: cotton JAZ1 protein, gene number Gh_A05G0260, sequence SEQ ID No. 4; prokaryotically expressed with His tag, about 30 KD (protein)
chain: MSSCSESTAMKPARSPEKPSFAQTCNLLSQYLKEKGSFGDLSLGMTCNVEANGTPVVPPPTMNLFPLNDKSDDVCGRNGGNPKNLTSMDLFPQQAGLASKDDSPNKLEPQTAPMTIFYGGQVIVFNDFPANKAKEIMLLASNSSSQSNNSFNPIPFTSSIARSPIESSIGVPPTSKPVHPAQRAVPGDLPIARRASLHRFLEKRKDRITAKAPYQINNSAAAPSLSGDNKSWLGLAAQSP
modifications: His tag
notes: prokaryotically expressed with His tag, about 30 KD
As for B1, in assay [1], the “interaction with c-Myc” value is listed as “interaction”. Also, the “interaction with NMYC” value in assay [2] was “interacted”.
